According to patent US20140127211A1:

Experiments:
[1] = target: full-length human Notch3 expressed on the cell surface (human) (UniProt Q9UM47); assay: flow cytometry, negative control antibody, U2OS/hNotch3 cells
[2] = target: full-length human Notch3 expressed on the cell surface (human) (UniProt Q9UM47); assay: flow cytometry, negative control antibody, MDA-MB-468/hNotch3 cells
[3] = target: full-length human Notch3 expressed on the cell surface (human) (UniProt Q9UM47); assay: flow cytometry, negative control antibody, OVCAR3 cells
[4] = target: full-length human Notch3 expressed on the cell surface (human) (UniProt Q9UM47); assay: flow cytometry, negative control antibody, HCC2429 cells
[5] = target: full-length human Notch3 expressed on the cell surface (human) (UniProt Q9UM47); assay: flow cytometry, negative control antibody, MDA-MB-468 cells

full-length human Notch3 expressed on the cell surface (human), sequence (Q9UM47 40-2321): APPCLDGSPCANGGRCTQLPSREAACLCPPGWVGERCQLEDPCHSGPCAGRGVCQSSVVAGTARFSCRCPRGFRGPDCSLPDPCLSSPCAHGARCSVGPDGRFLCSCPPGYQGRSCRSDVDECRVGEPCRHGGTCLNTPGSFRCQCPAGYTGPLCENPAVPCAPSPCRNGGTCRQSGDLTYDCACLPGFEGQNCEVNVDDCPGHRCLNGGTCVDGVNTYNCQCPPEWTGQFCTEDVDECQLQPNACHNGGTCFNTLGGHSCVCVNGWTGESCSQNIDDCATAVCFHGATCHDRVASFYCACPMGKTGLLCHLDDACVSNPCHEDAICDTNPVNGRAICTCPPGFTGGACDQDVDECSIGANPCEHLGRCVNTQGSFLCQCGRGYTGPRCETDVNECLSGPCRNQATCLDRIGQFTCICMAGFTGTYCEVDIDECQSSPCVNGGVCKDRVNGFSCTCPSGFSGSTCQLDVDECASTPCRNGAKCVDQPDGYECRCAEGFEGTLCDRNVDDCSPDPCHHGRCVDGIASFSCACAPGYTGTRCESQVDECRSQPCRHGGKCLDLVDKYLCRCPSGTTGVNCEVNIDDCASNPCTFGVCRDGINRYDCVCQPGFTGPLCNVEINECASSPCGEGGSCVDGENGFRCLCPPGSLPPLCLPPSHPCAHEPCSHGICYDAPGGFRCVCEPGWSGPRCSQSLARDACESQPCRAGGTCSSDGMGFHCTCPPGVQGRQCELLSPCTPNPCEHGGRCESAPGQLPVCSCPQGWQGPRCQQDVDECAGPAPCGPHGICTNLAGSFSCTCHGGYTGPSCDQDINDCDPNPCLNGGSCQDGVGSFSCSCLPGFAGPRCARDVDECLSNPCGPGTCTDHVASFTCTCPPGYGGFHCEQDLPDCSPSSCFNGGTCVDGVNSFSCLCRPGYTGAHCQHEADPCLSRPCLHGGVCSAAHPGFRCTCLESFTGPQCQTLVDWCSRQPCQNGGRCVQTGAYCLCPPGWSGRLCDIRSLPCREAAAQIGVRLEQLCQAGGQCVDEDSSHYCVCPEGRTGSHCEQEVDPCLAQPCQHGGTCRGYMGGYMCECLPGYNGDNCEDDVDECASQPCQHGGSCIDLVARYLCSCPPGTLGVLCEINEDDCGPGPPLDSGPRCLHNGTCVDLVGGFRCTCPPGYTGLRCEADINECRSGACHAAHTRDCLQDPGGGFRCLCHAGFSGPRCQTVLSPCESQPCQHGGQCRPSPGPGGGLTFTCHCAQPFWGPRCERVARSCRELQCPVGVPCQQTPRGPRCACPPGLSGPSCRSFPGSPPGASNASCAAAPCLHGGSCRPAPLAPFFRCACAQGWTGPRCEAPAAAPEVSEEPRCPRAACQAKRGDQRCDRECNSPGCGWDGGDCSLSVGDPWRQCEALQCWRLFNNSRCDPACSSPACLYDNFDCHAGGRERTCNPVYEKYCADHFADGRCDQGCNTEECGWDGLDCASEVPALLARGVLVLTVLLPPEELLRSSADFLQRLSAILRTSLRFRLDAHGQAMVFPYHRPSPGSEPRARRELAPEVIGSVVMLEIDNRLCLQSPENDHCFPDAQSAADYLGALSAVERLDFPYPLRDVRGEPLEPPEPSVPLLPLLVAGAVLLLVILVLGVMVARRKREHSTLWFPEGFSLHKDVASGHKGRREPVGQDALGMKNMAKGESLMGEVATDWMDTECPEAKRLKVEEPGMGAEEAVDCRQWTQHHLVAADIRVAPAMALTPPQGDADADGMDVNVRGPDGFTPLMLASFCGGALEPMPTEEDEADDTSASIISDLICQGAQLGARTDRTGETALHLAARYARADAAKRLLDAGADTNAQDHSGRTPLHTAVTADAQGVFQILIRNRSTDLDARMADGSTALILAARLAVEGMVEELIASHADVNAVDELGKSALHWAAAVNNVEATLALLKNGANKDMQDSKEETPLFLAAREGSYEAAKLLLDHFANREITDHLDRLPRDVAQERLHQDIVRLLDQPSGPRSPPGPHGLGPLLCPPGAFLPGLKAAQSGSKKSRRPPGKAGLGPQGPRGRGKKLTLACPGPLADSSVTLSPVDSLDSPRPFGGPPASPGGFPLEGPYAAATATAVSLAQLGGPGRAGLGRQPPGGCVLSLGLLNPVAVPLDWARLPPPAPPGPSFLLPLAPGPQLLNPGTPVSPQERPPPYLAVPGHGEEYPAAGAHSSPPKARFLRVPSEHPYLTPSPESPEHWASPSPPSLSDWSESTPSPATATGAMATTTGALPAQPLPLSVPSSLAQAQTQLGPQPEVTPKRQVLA

huNeg8.8 negative control antibody
MFI [1]: 6 MFI
MFI [2]: 6 MFI
MFI [3]: 5 MFI
MFI [4]: 3 MFI
MFI [5]: 6 MFI
